Data taken from PMC4552821.
Like-named read-outs stand apart in the source and are kept apart here.

Experiments:
[1] = target: Bone morphogenetic protein 2 (rhBMP-2) (UniProt P12643); assay: SPR (Reichert SR 7000 refractometer); settings: pH 7.4; 20°C; 154 mM NaCl plus 6.7 mM phosphates (PBS); HyClone PBS (154 mM NaCl, 1.06 mM KH2PO4, 5.6 mM Na2HPO4) at pH 7.4. The pH 4.5 solvent is the same PBS acidified with d
[2] = target: Kerateine (KTN) extract, in solution (analyte); assay: SPR (Reichert SR 7000 refractometer); settings: 20°C, no added salt, unbuffered
[3] = target: kerateine (reduced hair keratin extract) (Homo sapiens) (UniProt Q15323); assay: SPR
[4] = target: kerateine (reduced hair keratin extract) (Homo sapiens) (UniProt Q15323); assay: SPR; remark: listed apart in the source
[5] = pH 7, deionized water, water (pH 7)
[6] = pH 12, 10 mM NaOH, 10 mM NaOH (pH 12)

Chain of Bone morphogenetic protein 2 (rhBMP-2) (P12643 whole entry): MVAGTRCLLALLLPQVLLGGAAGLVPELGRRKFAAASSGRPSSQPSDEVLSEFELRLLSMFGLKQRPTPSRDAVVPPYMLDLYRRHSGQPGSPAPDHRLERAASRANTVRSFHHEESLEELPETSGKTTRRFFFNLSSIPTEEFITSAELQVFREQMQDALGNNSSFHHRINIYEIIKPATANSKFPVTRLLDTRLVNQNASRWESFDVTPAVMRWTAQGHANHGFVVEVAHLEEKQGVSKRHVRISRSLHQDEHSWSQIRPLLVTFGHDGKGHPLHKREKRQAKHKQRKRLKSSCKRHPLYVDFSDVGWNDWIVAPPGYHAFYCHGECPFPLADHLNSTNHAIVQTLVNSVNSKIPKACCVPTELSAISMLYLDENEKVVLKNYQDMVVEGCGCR

| KD [1] | t1/2 (half-life of the complex) [1] | ΔG (dissociation energy) [1] | KD [2, 5] | t1/2 (half-life of the complex) [2, 5] | ΔG (dissociation energy) [2, 5] | KD [2, 6] | t1/2 (half-life of the complex) [2, 6] | ΔG (dissociation energy) [2, 6] | Kd [3] | Kd [4] | Substance |
| --- | --- | --- | --- | --- | --- | --- | --- | --- | --- | --- | --- |
| 32 µM | 3.73 min | 6.0 kcal/mol | 180 µM | 1.28 min | 5.0 kcal/mol | 100 µM | 1.77 min | 5.4 kcal/mol | – | – | Kerateine (KTN) extract, chemisorbed monolayer on gold |
| – | – | – | – | – | – | – | – | – | 180 µM | 100 µM | kerateine (reduced hair keratin extract), Q15323 |
